Measurements: patent EP2100620A1

Assays:
[1] = molecular target: HLA receptor A11 (HLA-A*1101), purified from transfected human cells (human); test: competitive binding assay: unlabeled test peptide against 5 nM 125I-labeled standard peptide on purified HLA with 1 uM b2m, size exclusion HPLC, 68 h incubation
[2] = molecular target: HLA receptor A1 (HLA-A*0101), purified from transfected human cells (human); test: competitive binding assay: unlabeled test peptide against 5 nM 125I-labeled standard peptide on purified HLA with 1 uM b2m, size exclusion HPLC, 51 h incubation; conditions: remark: other sources report otherwise

HTMLCMCCK (modifications not checked) [… (SEQ ID NO:122), HPV strain 18 E7 59-67] showed an IC50 [1] of 67 nM.

With ISEYRHYCY (modifications not checked) [… (SEQ ID NO:70), HPV 16 E6 peptide] the IC50 [2] was 49 nM.
